According to article PMC4184891, “Involvement of the Iron Regulatory Protein from Eisenia andrei Earthworms in the Regulation of Cellular Iron Homeostasis”:

Experiments:
[1] = biological target: T1, rEaIRP (iron regulatory protein) (Eisenia andrei, UniProt I1VH49 1-890); test: EMSA; 6 nM RNA, 5-150 nM protein, tRNA; complex visible at 20 nM, distinct at 50 nM; low affinity; competed by unlabeled EAconsIRE; LightShift RNA EMSA kit binding buffer (composition not given), 5% glycerol, 2 ug tRNA, 20 ul, 30 min room temperature; rEaIRP reduced with 1 mM 2-mercaptoethanol; 6% native PAGE in 0.5X TBE; pH and salt not given; liver extract lanes left out (protein not identified); details: protein: recombinant; tags: N-terminal 6xHis (pRSET B); label: biotin; hairpin; optimal fold has unpaired U one nt closer to the loop instead of bulged C
T1 sequence: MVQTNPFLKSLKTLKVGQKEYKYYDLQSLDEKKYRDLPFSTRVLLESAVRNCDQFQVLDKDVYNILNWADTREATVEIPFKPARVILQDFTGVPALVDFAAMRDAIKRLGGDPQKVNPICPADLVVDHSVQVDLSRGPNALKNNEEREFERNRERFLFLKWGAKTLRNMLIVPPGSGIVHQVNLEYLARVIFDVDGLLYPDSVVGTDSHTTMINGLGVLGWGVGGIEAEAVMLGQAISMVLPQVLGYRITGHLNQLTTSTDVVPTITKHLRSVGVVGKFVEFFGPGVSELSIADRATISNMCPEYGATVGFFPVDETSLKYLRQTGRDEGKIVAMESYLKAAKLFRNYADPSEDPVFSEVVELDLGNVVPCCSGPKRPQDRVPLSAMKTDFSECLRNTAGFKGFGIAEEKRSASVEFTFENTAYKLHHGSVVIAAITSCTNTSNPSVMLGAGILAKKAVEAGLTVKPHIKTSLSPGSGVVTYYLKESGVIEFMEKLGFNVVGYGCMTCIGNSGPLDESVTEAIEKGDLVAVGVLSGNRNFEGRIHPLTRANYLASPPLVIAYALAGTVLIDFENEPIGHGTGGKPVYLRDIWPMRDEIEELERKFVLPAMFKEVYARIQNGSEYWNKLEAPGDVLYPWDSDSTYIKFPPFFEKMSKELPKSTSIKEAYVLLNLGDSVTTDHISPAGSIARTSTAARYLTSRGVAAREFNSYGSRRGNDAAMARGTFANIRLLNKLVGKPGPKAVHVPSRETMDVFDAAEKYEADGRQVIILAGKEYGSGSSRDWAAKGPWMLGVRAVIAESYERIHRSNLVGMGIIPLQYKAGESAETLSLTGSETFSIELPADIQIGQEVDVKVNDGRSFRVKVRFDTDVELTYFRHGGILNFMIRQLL

[2] = biological target: T1, rEaIRP (iron regulatory protein); test: EMSA; 6 nM RNA, 50 nM protein, tRNA; reduced by 200-fold unlabeled MAMconsIRE; LightShift RNA EMSA kit binding buffer (composition not given), 5% glycerol, 2 ug tRNA, 20 ul, 30 min room temperature; rEaIRP reduced with 1 mM 2-mercaptoethanol; 6% native PAGE in 0.5X TBE; pH and salt not given; liver extract lanes left out (protein not identified); details: protein: recombinant; tags: N-terminal 6xHis (pRSET B); label: biotin; hairpin with bulged C

Row | Binder | binding result [1] | binding result [2]
1 | GGGUGCUUUGCUGCGUCAGUGUGCGUGCGAGCUAA (structured_RNA, Bio-11-UTP incorporated in transcription (probe)) [EAconsIRE] | binds | 
2 | GGGUUUCCUGCUUCAACAGUGCUUGGACGGAACCC (structured_RNA, Bio-11-UTP incorporated in transcription (probe)) [MAMconsIRE] |  | binds
